Experimental findings from publication PMC9817231 are described below.

Read-outs that look alike come from different tables or passages of the source.

Data set [1] concerns the target T1, FL-Nsp1 (non-structural protein 1) (SARS-CoV-2, UniProt P0DTD1 1-180). The data set is described as follows: NMR.
In data set [2] the target is T1, FL-Nsp1 (non-structural protein 1). Nature of the data set: NMR. This is another data set of the same source.

B1: SL1-4 (structured_RNA)
RNA: GGUUUAUACCUUCCCAGGUAACAAACCAACCAACUUUCGAUCUCUUGUAGAUCUGUUCUCUAAACGAACUUUAAAAUCUGUGUGGCUGUCACUCGGCUGCAUGCUUAGUGCACUCACGC
As to B1, the binding result in data set [1] was “no binding”.

As for GGGUUUAUACCUUCCCAGGUAACAAACCC (structured_RNA) [SL1], the binding result in data set [2] is “no binding”.
